Source: patent publication US20260042834A1 (HBM ALPHA THERAPEUTICS, published 2026)

T1: corticotropin-releasing hormone (CRH) peptide (human and mouse, not fully specified)
T1 peptide: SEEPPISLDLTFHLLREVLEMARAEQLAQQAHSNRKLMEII

T2: corticotropin-releasing hormone (CRH) peptide (human and mouse (same sequence), not fully specified)
T2 peptide: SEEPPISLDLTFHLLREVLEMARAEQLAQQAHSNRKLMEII


Biological target: T1, corticotropin-releasing hormone (CRH) …
Experiment: cell-based or functional assay

hCRHR1 Reporter IC50 [nM] | Binder
7.38 | PR006669 (antibody, human IgG1, kappa, V domains shown) VH: EVQLVESGGGLVQPGGSLRLSCAASGFTFSDNWMSWVRQAPGKGLEWVANIKQDGSENYYVDSVKGRFTISRDNAKNSLYLQMNSLRAEDTAVYYCSRGLALWGWGQGTLVTVSS VL: DIVMTHSPLSLPVTPGDPASISCRSSQSLLHSTGYNYLDWYLQKPGQSPQLLIYLGSNRASGVPDRFSGSGSGTDFTLKFIRVEAEDVGVYYCMQALQTPYTFGQGTKLEIKR

Biological target: T2, corticotropin-releasing hormone (CRH) …
Experiment: cell-based or functional assay

hCRHR1 Luciferase Reporter Assay IC50 [nM] | Binder
7.23 | PR302309-13 (antibody, human IgG1, kappa, V domains shown) VH: QVQLVQSGSELKKPGASVKVSCKASGYTFTNYGMNWVRQAPGQGLEWMGWINTYTGEPIYTDDFKGRFVFSLDTSVSTAYLQISSLKAEDTAVYYCARSTMITTGGVFAYWGQGTLVTVSS VL: DVLMAQTPLSLPVSLGDQASISCRSSQTIVHSDGNTYLEWYLQKPGQSPKLLIYKVSNRFSGVPDRFSGSGSGTDFTLKISRVEAEDLGVYYCFQGSHVPWTFGGGTKLEIKR
3.2 | PR302309-10 (antibody, human IgG1, kappa, V domains shown) VH: QIQLVQSGSELKKPGASVKVSCKASGYTFTNYGMNWVRQAPGQGLEWMGWINTYTGEPIYTDDFKGRFVFSLDTSVSTAYLQISSLKAEDTAVYYCSRSTMITTGGVFAYWGQGTLVTVSS VL: DVVMTQTPLSLSVTPGQPASISCRSSQTIVHSDGNTYLEWYLQKPGQSPQLLIYKVSNRFSGVPDRFSGSGSGTDFTLKISRVEAEDLGVYYCFQGSHVPWTFGGGTKVEIKR
4.47 | PR302309-12 (antibody, human IgG1, kappa, V domains shown) VH: QIQLVQSGSELKKPGASVKVSCKASGYTFTNYGMNWVRQAPGQGLEWMGWINTYTGEPIYTDDFKGRFVFSLDTSVSTAYLQISSLKAEDTAVYYCSRSTMITTGGVFAYWGQGTLVTVSS VL: DVVMTQTPLSSPVTLGQPASISCRSSQTIVHSDGNTYLEWYQQRPGQPPRLLIYKVSNRFSGVPDRFSGSGAGTDFTLKISRVEAEDLGVYYCFQGSHVPWTFGGGTKVEIKR
2.12 | PR302309-11 (antibody, human IgG1, kappa, V domains shown) VH: QIQLVQSGSELKKPGASVKVSCKASGYTFTNYGMNWVRQAPGQGLEWMGWINTYTGEPIYTDDFKGRFVFSLDTSVSTAYLQISSLKAEDTAVYYCSRSTMITTGGVFAYWGQGTLVTVSS VL: DIVMTQTPLSSPVTLGQPASISCRSSQTIVHSDGNTYLEWLQQRPGQPPRLLIYKVSNRFSGVPDRFSGSGAGTDFTLKISRVEAEDVGVYYCFQGSHVPWTFGGGTKVEIKR

Further lines, the binder ahead of its results:

Binder | hCRHR1 Luciferase Reporter Assay IC50 [nM]
PR302309-1 (antibody, human IgG1, kappa, V domains shown) VH: QIQLVQSGPELKKPGETVKISCKASGYTFTNYGMNWVKQAPGKVLKWMGWINTYTGEPIYTDDFKGRFAFSLETSASTAYLQINNLKNEDTATYFCSRSTMITTGGVFAYWGQGTLVTVSA VL: DVVMTQSPLSLPVTLGQPASISCRSSQTIVHSDGNTYLEWFQQRPGQSPRRLIYKVSNRFSGVPDRFSGSGSGTDFTLKISRVEAEDVGVYYCFQGSHVPWTFGGGTKVEIKR | 4.42
PR302309-6 (antibody, human IgG1, kappa, V domains shown) VH: QIQLVQSGPELKKPGETVKISCKASGYTFTNYGMNWVKQAPGKVLKWMGWINTYTGEPIYTDDFKGRFAFSLETSASTAYLQINNLKNEDTATYFCSRSTMITTGGVFAYWGQGTLVTVSA VL: DVVMTQTPLSSPVTLGQPASISCRSSQTIVHSDGNTYLEWYQQRPGQPPRLLIYKVSNRFSGVPDRFSGSGAGTDFTLKISRVEAEDLGVYYCFQGSHVPWTFGGGTKVEIKR | 1.08
PR302309-4 (antibody, human IgG1, kappa, V domains shown) VH: QIQLVQSGPELKKPGETVKISCKASGYTFTNYGMNWVKQAPGKVLKWMGWINTYTGEPIYTDDFKGRFAFSLETSASTAYLQINNLKNEDTATYFCSRSTMITTGGVFAYWGQGTLVTVSA VL: DVVMTQTPLSLSVTPGQPASISCRSSQTIVHSDGNTYLEWYLQKPGQSPQLLIYKVSNRFSGVPDRFSGSGSGTDFTLKISRVEAEDLGVYYCFQGSHVPWTFGGGTKVEIKR | 1.26
PR302309-8 (antibody, human IgG1, kappa, V domains shown) VH: QIQLVQSGSELKKPGASVKVSCKASGYTFTNYGMNWVRQAPGQGLEWMGWINTYTGEPIYTDDFKGRFVFSLDTSVSTAYLQISSLKAEDTAVYYCSRSTMITTGGVFAYWGQGTLVTVSS VL: DVVMTQSPLSLPVTLGQPASISCRSSQTIVHSDGNTYLEWYQQRPGQSPRLLIYKVSNRFSGVPDRFSGSGSGTDFTLKISRVEAEDLGVYYCFQGSHVPWTFGGGTKVEIKR | 1.7
PR302309-3 (antibody, human IgG1, kappa, V domains shown) VH: QIQLVQSGPELKKPGETVKISCKASGYTFTNYGMNWVKQAPGKVLKWMGWINTYTGEPIYTDDFKGRFAFSLETSASTAYLQINNLKNEDTATYFCSRSTMITTGGVFAYWGQGTLVTVSA VL: DIVMTQTPLSLSVTPGQPASISCRSSQTIVHSDGNTYLEWYLQKPGQSPQLLIYKVSNRFSGVPDRFSGSGSGTDFTLKISRVEAEDVGVYYCFQGSHVPWTFGGGTKVEIKR | 2.22
PR302309-7 (antibody, human IgG1, kappa, V domains shown) VH: QIQLVQSGSELKKPGASVKVSCKASGYTFTNYGMNWVRQAPGQGLEWMGWINTYTGEPIYTDDFKGRFVFSLDTSVSTAYLQISSLKAEDTAVYYCSRSTMITTGGVFAYWGQGTLVTVSS VL: DVVMTQSPLSLPVTLGQPASISCRSSQTIVHSDGNTYLEWFQQRPGQSPRRLIYKVSNRFSGVPDRFSGSGSGTDFTLKISRVEAEDVGVYYCFQGSHVPWTFGGGTKVEIKR | 6.38
PR302309-2 (antibody, human IgG1, kappa, V domains shown) VH: QIQLVQSGPELKKPGETVKISCKASGYTFTNYGMNWVKQAPGKVLKWMGWINTYTGEPIYTDDFKGRFAFSLETSASTAYLQINNLKNEDTATYFCSRSTMITTGGVFAYWGQGTLVTVSA VL: DVVMTQSPLSLPVTLGQPASISCRSSQTIVHSDGNTYLEWYQQRPGQSPRLLIYKVSNRFSGVPDRFSGSGSGTDFTLKISRVEAEDLGVYYCFQGSHVPWTFGGGTKVEIKR | 0.773
PR302309-9 (antibody, human IgG1, kappa, V domains shown) VH: QIQLVQSGSELKKPGASVKVSCKASGYTFTNYGMNWVRQAPGQGLEWMGWINTYTGEPIYTDDFKGRFVFSLDTSVSTAYLQISSLKAEDTAVYYCSRSTMITTGGVFAYWGQGTLVTVSS VL: DIVMTQTPLSLSVTPGQPASISCRSSQTIVHSDGNTYLEWYLQKPGQSPQLLIYKVSNRFSGVPDRFSGSGSGTDFTLKISRVEAEDVGVYYCFQGSHVPWTFGGGTKVEIKR | 6.08
PR302309-5 (antibody, human IgG1, kappa, V domains shown) VH: QIQLVQSGPELKKPGETVKISCKASGYTFTNYGMNWVKQAPGKVLKWMGWINTYTGEPIYTDDFKGRFAFSLETSASTAYLQINNLKNEDTATYFCSRSTMITTGGVFAYWGQGTLVTVSA VL: DIVMTQTPLSSPVTLGQPASISCRSSQTIVHSDGNTYLEWLQQRPGQPPRLLIYKVSNRFSGVPDRFSGSGAGTDFTLKISRVEAEDVGVYYCFQGSHVPWTFGGGTKVEIKR | 0.454

Biological target: T2, corticotropin-releasing hormone (CRH) …
Experiment: cell-based or functional assay
Remark: another data set of the same source

hCRHR1-Luc 0.5 nM CRH IC50 [nM] | hCRHR1 Luciferase Reporter Assay IC50 [nM] | mCrhr1 Luciferase Reporter Assay IC50 [nM] | Binder
1.36 | 1.36 | 2.27 | PR302334-27 (antibody, human IgG1, kappa, V domains shown) VH: EVQLVESGGGLVQPGGSLRLSCAASGFTFSTYAMSWVRQAPGKGLEWVASIRSGGTTYYPDSVKGRFTISRDNSKNSLYLQMNSLRAEDTAVYYCTRGIDWGQGTTVTVSS VL: DIQMTQSSLSASVSLGDRVTITCKASQSVNNDVAWYQQKPGKAPRLLIYYASNRYTGVPSRFSGSGSGTDFTFTISSLQPEDLATYFCQQDYSSWTFGGGTKVEIKR
